Literature values in US20140179681A1, “METHODS AND COMPOSITIONS OF TARGETED DRUG DEVELOPMENT” (priority 2010, published 2014).

Biological target: T1, EGF binding site (Rattus norvegicus, UniProt G3V6K6)
T1 construct: Receptor source was rat liver membranes; tissue NovaScreen BioSciences; host or cells: rat liver membranes
Settings: radioligand of the inhibitor assays; rat liver membranes; read-out: KD (binding affinity)

B1: [^125I]EGF: "The radioligand was [^125I]EGF ([…]) at a final ligand concentration of 0.36 nM" (protein, UniProt P01133 23-1207, looked up)
Pro-epidermal growth factor: PQHWSCPEGTLAGNGNSTCVGPAPFLIFSHGNSIFRIDTEGTNYEQLVVDAGVSVIMDFHYNEKRIYWVDLERQLLQRVFLNGSRQERVCNIEKNVSGMAINWINEEVIWSNQQEGIITVTDMKGNNSHILLSALKYPANVAVDPVERFIFWSSEVAGSLYRADLDGVGVKALLETSEKITAVSLDVLDKRLFWIQYNREGSNSLICSCDYDGGSVHISKHPTQHNLFAMSLFGDRIFYSTWKMKTIWIANKHTGKDMVRINLHSSFVPLGELKVVHPLAQPKAEDDTWEPEQKLCKLRKGNCSSTVCGQDLQSHLCMCAEGYALSRDRKYCEDVNECAFWNHGCTLGCKNTPGSYYCTCPVGFVLLPDGKRCHQLVSCPRNVSECSHDCVLTSEGPLCFCPEGSVLERDGKTCSGCSSPDNGGCSQLCVPLSPVSWECDCFPGYDLQLDEKSCAASGPQPFLLFANSQDIRHMHFDGTDYGTLLSQQMGMVYALDHDPVENKIYFAHTALKWIERANMDGSQRERLIEEGVDVPEGLAVDWIGRRFYWTDRGKSLIGRSDLNGKRSKIITKENISQPRGIAVHPMAKRLFWTDTGINPRIESSSLQGLGRLVIASSDLIWPSGITIDFLTDKLYWCDAKQSVIEMANLDGSKRRRLTQNDVGHPFAVAVFEDYVWFSDWAMPSVMRVNKRTGKDRVRLQGSMLKPSSLVVVHPLAKPGADPCLYQNGGCEHICKKRLGTAWCSCREGFMKASDGKTCLALDGHQLLAGGEVDLKNQVTPLDILSKTRVSEDNITESQHMLVAEIMVSDQDDCAPVGCSMYARCISEGEDATCQCLKGFAGDGKLCSDIDECEMGVPVCPPASSKCINTEGGYVCRCSEGYQGDGIHCLDIDECQLGEHSCGENASCTNTEGGYTCMCAGRLSEPGLICPDSTPPPHLREDDHHYSVRNSDSECPLSHDGYCLHDGVCMYIEALDKYACNCVVGYIGERCQYRDLKWWELRHAGHGQQQKVIVVAVCVVVLVMLLLLSLWGAHYYRTQKLLSKNPKNPYEESSRDVRSRRPADTEDGMSSCPQPWFVVIKEHQDLKNGGQPVAGEDGQAADGSMQPTSWRQEPQLCGMGTEQGCWIPVSSDKGSCPQVMERSFHMPSYGTQTLEGGVEKPHSLLSANPLWQQRALDPPHQMELTQ
modifications: Pro-epidermal growth factor 125I label
- Kd: 1.04 nM
